# In patent publication US9725518B2, “Antibodies that bind to Jagged 1” (Cancer Research Technology Limited, priority 2013, dated 2017):
# Residue numbers refer to the chain shown, from its start.
# B1: J1-183D variant 15: humanised/de-immunised J1-183D: J1-183D_VL_4 + J1-183D_VH_3 (antibody, V domains shown)
# VH: QVQLVQSGAELKKPGASVKVSCKVSGYAFTDYAIHWVRQAPGQGLEWMGIINTYYGDSKYAQKFQGRVTMTVDTSTSTAYMELSSLRSEDTAVYYCARGYDGFAYWGQGTLVTVSSASTKGP
# VL: DIQMTQSPSSLSASVGDRVTITCRTSENIYSYLTWYQQKPGKAPKLLIYHAKILDSGVPSRFSGSGSGTDFTLTISSLQPEDFATYYCQHHYDIPWTFGGGTKLEIKRT
# B2: J1-183D variant 16: humanised/de-immunised J1-183D: J1-183D_VL_4 + J1-183D_VH_4 (antibody, V domains shown)
# VH: B1 VH with L11V, V24A, A28T
# VL: B1 VL
# B3: J1-183D variant 14: humanised/de-immunised J1-183D: J1-183D_VL_4 + J1-183D_VH_2 (antibody, V domains shown)
# VH: B1 VH with V37I
# VL: B1 VL
# B4: J1-183D variant 12: humanised/de-immunised J1-183D: J1-183D_VL_3 + J1-183D_VH_4 (antibody, V domains shown)
# VH: B1 VH with L11V, V24A, A28T
# VL: B1 VL with H50N
# B5: J1-65D chimeric: chimeric antibody with unaltered CDRs: J1-65D_VL + J1-65D_VH (antibody, V domains shown)
# VL: DIQLTQSPASLSASVGETVTITCRASGNIHNYLAWYQQKQGKSPQLLVYNAKTLADDIPSRFSGSGSGTQYSLKINSLQPEDFGSYYCQHFWSAPWTFGGGTKLEIK
# VH: QVQLQQPGAELVRPGASVKLSCKALGYTFTDYEMHWVKETPVHGLEWIGAIQPGGGGTAYNQKFKGKATLTADKSSSTAYMELSSLTSEDSAVYYCTRRGYDDYPFAYWGQGTLVTVSS
# B6: J1-65D variant 4: humanised/de-immunised J1-65D: J1-65D_VL_1 + J1-65D_VH_4 (antibody, V domains shown)
# VH: QVQLVQSGAEVKKPGSSVKVSCKASGYTFTDYEMHWVRQAPGQGLEWMGAIQPGGGGTAYAQKFQGRVTITADKSTSTAYMELSSLRSEDTAVYYCTRRGYDDYPFAYWGQGTLVTVSSASTKGP
# VL: DIQMTQSPSSLSASVGDRVTITCRASGNIHNYLAWYQQKPGKAPKLLIYNAKTLADDVPSRFSGSGSGTDYTLTISSLQPEDFATYYCQHFWSAPWTFGGGTKLEIKRT
# Biological target: T1, N1 binding to cell surface expressed hJ1 (Homo sapiens, UniProt P78504)
# T1 construct: cell expressed full length human J1 (hJ1; HEK293 transfectants); expressed in transfected cells; host or cells: HEK293
# T1 sequence (P78504 34-1218): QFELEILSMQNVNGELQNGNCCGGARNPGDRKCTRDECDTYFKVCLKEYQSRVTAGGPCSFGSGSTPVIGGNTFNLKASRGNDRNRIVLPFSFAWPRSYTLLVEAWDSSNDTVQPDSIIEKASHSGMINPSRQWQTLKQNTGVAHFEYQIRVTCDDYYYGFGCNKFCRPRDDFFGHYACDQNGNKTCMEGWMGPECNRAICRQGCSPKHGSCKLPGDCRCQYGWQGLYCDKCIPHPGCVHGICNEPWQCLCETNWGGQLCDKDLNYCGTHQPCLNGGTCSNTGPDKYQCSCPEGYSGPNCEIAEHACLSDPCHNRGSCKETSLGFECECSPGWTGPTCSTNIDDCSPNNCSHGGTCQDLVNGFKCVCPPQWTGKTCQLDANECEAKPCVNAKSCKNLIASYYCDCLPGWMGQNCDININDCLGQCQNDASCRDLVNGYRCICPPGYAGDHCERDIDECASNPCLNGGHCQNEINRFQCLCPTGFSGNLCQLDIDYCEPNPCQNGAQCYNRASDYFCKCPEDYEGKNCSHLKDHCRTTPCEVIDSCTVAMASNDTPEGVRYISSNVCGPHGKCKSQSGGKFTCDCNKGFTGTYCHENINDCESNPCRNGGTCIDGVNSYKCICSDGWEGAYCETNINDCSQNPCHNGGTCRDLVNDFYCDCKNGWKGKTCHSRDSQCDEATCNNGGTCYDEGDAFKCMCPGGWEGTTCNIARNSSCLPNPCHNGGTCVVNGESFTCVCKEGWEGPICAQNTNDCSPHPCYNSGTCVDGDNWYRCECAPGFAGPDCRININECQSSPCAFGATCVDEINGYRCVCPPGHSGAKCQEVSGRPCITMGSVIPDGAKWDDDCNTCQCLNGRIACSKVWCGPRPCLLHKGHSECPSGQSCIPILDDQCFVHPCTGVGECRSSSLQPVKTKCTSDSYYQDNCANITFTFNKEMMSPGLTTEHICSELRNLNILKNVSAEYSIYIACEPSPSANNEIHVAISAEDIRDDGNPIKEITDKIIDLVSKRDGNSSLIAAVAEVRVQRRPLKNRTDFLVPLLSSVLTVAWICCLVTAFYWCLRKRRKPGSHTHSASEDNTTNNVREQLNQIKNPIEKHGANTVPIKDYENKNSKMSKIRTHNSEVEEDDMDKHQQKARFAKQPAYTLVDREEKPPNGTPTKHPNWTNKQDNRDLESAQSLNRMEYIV
# Experiment: Notch binding blocking assay (FACS): N1 EGF11-13 beads staining human J1-expressing cells
# Design: key: +: Complete blocking; X: No blocking
# Settings: final antibody concentration 0.2 μg/ml
# Protocol: To functionally identify mAbs with the capacity to disrupt the J1-N1 protein:protein interaction, hybridoma culture supernatants were tested in a FACS-based binding assay. Biotinylated soluble human N1 EGF11-13 recombinant protein was bound to avidin-coated beads and used to stain J1-expressing cells in the presence or absence of each mAb that recognised cell surface hJ1 by FACS. […] The four blocking antibodies of the invention were also able to block the binding of recombinant […] to a biotin-tagged J1 DSL-EGF3 recombinant protein in an ELISA assay (FIG. 1B). […] The four blocking mAbs of the invention were purified from serum-free culture supernatants and equal concentrations of purified antibodies were used to compare their activity in subsequent assays (unless hybridoma supernatant was specified). Sequence conservation across the DSL domain raised the possibility that the J1 mAbs may also be able to bind the Jagged 2 (J2) protein. Antibody binding specificity was initially tested by immunocytochemical labelling of cytospin samples of hJ1 and hJ2 transfectants (FIG. 2). All antibodies stained J1 transfectants but none stained the J2 transfected cells, and J2 expression in the same experiment was confirmed using a commercial anti-J2 antibody. The specificity of the purified mAbs was further investigated in mammalian cells transfected with hJ2, human Delta-like ligand 4 (hDLL4), or mJ1 (FIG. 3). Transfectants were FACS stained with 10 μg/ml of each of the four blocking mAbs.
# To test the blocking efficiencies of the J1 mAbs, purified mAbs were titrated to determine the concentration required to block recombinant N1 binding to cell surface expressed hJ1. Beads coated with a bacterially-expressed N1 EGF11-13 protein were used to stain the hJ1-expressing cells in the presence of various concentrations of mAbs.
# The FACS-based binding assay using biotinylated soluble human N1 EGF11-13 recombinant protein bound to avidin-coated fluorescent beads to stain J1-expressing cells was performed using a dilution series of each variant mAb to test their ability to block J1 binding to N1 by FACS (Table 7). […] Thus 12/16 J1-65D1 variants V1-12 and all J1-183D variants have the desired binding and blocking activity.
# Human N1 EGF11-13 (411-526) was expressed in E. coli, refolded in vitro and labelled with purple fluorescent avidin-coated beads (Spherotech) as previously described. HEK293 cells transfected with human J1 or B16F10 cells transfected with mouse J1 were stained with N1 fluorescent beads in the presence of J1 antibody supernatants or purified antibody (murine, chimeric or humanised) diluted in HBBS/10% FCS. Cells were washed and re-suspended in staining buffer before being analysed with a FACSCalibur and data analysis with CellQuest. HEK293 cells transfected with human Jagged 2 and B16F10 cells transfected with human and mouse DLL4 were stained similarly to test blocking specificity.
row,Molecule,Blocking of Notch1 binding to cell surface Jagged 1
1,B1,X
2,B2,X
3,B3,X
4,B4,X
5,B5,X
6,B6,X

# Same assay, conditions: final antibody concentration 0.4 μg/ml
row,Molecule,Blocking of Notch1 binding to cell surface Jagged 1
1,B1,+ (Complete blocking)
2,B2,+ (Complete blocking)
3,B3,+ (Complete blocking)
4,B4,+ (Complete blocking)
5,B5,+ (Complete blocking)
6,B6,+ (Complete blocking)

# Same assay, conditions: final antibody concentration 0.6 μg/ml
row,Molecule,Blocking of Notch1 binding to cell surface Jagged 1
1,B1,+ (Complete blocking)
2,B2,+ (Complete blocking)
3,B3,+ (Complete blocking)
4,B4,+ (Complete blocking)
5,B5,+ (Complete blocking)
6,B6,+ (Complete blocking)

# Same assay, conditions: final antibody concentration 1.0 μg/ml
row,Molecule,Blocking of Notch1 binding to cell surface Jagged 1
1,B1,+ (Complete blocking)
2,B2,+ (Complete blocking)
3,B3,+ (Complete blocking)
4,B4,+ (Complete blocking)
5,B5,+ (Complete blocking)
6,B6,+ (Complete blocking)

# Test system: J1-induced Notch signalling
# Experiment: Luciferase assay, LS174T RBPJ reporter stimulated with J1 protein
# Format: cell-based, human
# Settings: humanised/chimeric mAbs 10 μg/ml, NE3-Fc; DBZ control
# Protocol: FIG. 9. […] (A) The colorectal cancer cell line LS174T expressing luciferase under the control of Notch co-factor RBPJ was stimulated with mammalian cell-expressed soluble J1 proteins (NE3-Fc and NE12-Fc) or a control protein in the presence of J1 mAbs (10 μg/ml), and luciferase activity was measured. […] (C) Breast cancer MDA-MB-231 cells were cultured with J1 mAbs. The expression level of the Notch target gene HES1 was measured by qPCR using β2m as the control gene. In all experiments the γ-secretase inhibitor DBZ was used as a positive control for pan Notch inhibition and a control mAb (IgG2b or IgG1) or no treatment (NT) were negative controls.
# FIG. 20. Inhibition of human Jagged 1/Notch signalling by humanised and de-immunised J1-mAbs in vitro. The colorectal cancer cell line LS174T expressing luciferase under the control of Notch co-factor RbPJ was stimulated with mammalian cell-expressed recombinant J1 protein (NE3-Fc protein, right bar for each treatment) or a control protein (left bar) in the presence of J1 mAbs (10 μg/ml), and luciferase activity was measured. The parental murine monoclonal antibody (Mo), Murine IgG1, DMSO and DBZ were used as controls.
# Having established that the J1 mAbs were able to block the binding of the J1 ligand to its receptor N1 their effect on the activity of the Notch signalling pathway was investigated. The human colorectal cancer cell line LS174T, stably expressing a luciferase reporter gene under control of Notch co-factor RBPJ, was stimulated with two forms of immobilised J1 protein: N-terminus to EGF3 and N-terminus to EGF12. […] Importantly, the best two J1 mAbs (J1-65D and J1-183D) were also tested against other Notch ligands in order to verify ligand specificity.
# Prior to experiment, clear bottom 96-well plates (CELLSTAR) wells were coated with either J1-ECD fragments (NE3-Fc and NE12-Fc), other Notch-ligands (J2 or DLL4; both from R&D) or control protein (mlgG2b) at the concentration of 5 μg/ml in 0.1% BSA-PBS (overnight incubation at 4° C.). LS174T colorectal cancer cells, expressing the luciferase gene under control of the Notch cofactor RbPJ, were then plated (4×10^4 cells/well) in the presence of different mAbs (10 μg/ml) or DBZ (100 nM). Luciferase activity was then quantified 24 hours later using the Bright-Glo Luciferase Assay System (Promega).
row,Molecule,inhibition of J1-induced luciferase activity
1,B6,inhibited as effectively as by the parental murine mAb

# Test system: MDA-MB-231 spheroids
# Experiment: Spheroid assay (3-D growth), MDA-MB-231
# Format: cell-based, human
# Settings: humanised variants 5 μg/ml
# Excerpt: Similar findings were also reported for the Merck anti-N1 mAbs when tested on the LS-1034 cell line. As cell-cell contact is required to activate Notch signalling a spheroid-based 3-D growth model was used to test the ability of the J1 mAbs to block tumour growth. Furthermore, the 3-D model better mimics in vivo conditions including hypoxia and acidosis, allowing evaluation of the mAbs effect in a more realistic setting. Spheroids were generated from MDA-MB-231 breast cancer cells and the ability of different concentrations of the J1-65D mAb to inhibit their growth was evaluated.
# Cells were harvested and resuspended in 2.5% Matrigel (BD)-complete DMEM medium. Cell suspension was plated on low-adherence 96-well plates (Corning) (200 μl/well) and spheroids, of approximately fixed cell number (5×10^3 cells for MDA-MB-231 and MDA-MB-468 cell lines; 2×10^3 for MCF7 cells) were then generated by spinning plates at 1800 rpm for 10 minutes. The following day, pictures of the spheroids were taken (day 1) and treatments were added (mAbs were used at 10 μg/ml [5 μg/ml for humanised antibodies] while DBZ was used at the concentration of 100 nM). In some experiments Paclitaxel (1 nM) and Doxorubicin (20 nM) were used in combination with J1-65D mAb treatment. Every 2 days pictures were taken and half of the medium was replaced with fresh one containing mAb/drug. At the end of the experiment, spheroids were either lysed for RNA extraction, were processed and paraffin-embedded for immunohistochemical analysis or were dissociated by pipetting and trypsinization into single cell suspensions for FACS analysis. Spheroid size was evaluated by image analysis using ImageJ software.
row,Molecule,spheroid growth inhibition
1,B1,increasingly less effect
2,B4,increasingly less effect
3,B6,slightly reduced ability to inhibit spheroid growth

# Test system: not listed separately
# Experiment: Soluble aggregates of transiently expressed antibodies
# Format: physicochemical
# Settings: Protein A purified antibody
# Excerpt: The protein yield of these antibodies, their levels of soluble aggregates and their binding affinity to the immunogen (J1-DE3) are illustrated in (Table 6).
row,Molecule,% soluble aggregate [%]
1,B1,2.21
2,B2,0.72
3,B3,3.02
4,B4,0.66
5,B5,0
6,B6,0
